Among the targets are HLA-C*03:03; HLA-B*15:01; HLA-A*26:01; HLA-B*27:05; HLA-A*03:01; HLA-B*07:02; HLA-B*40:01; HLA-B*44:02; HLA-B*58:01; HLA-A*11:01; HLA-A*24:03; HLA-A*01:01; HLA-B*35:01; HLA-A*31:01; HLA-B*08:01; HLA-A*02:01; HLA-A*02:19; HLA-A*68:02; HLA-B*18:01; HLA-A*02:12; HLA-B*57:01; HLA-B*51:01; HLA-B*27:03; HLA-A*69:01; HLA-B*46:01.
Holding throughout (experiment): IEDB peptide-MHC binding, purified MHC/direct/fluorescence; filed as Kd, often an IC50 or EC50 that approximates it; ≥ and ≤ were set here for values at or beyond the usual limits of such assays
The target in the next experiment is HLA-B*39:01. The conditions noted are these: source organism: Cryptosporidium parvum Iowa II.
A further experiment deals with HLA-C*14:02. The conditions noted are these: source organism: Mycobacterium tuberculosis str. Haarlem.
For the next experiment, the target named is HLA-C*15:02. The conditions noted are these: source organism: Mycobacterium tuberculosis str. Haarlem.
A further experiment addresses HLA-A*02:16. The conditions noted are these: source organism: Vibrio cholerae O139.
For a further experiment, the target named is HLA-A*02:03. The conditions noted are these: source organism: Vibrio cholerae O139.
The target in a further experiment is HLA-A*23:01. The conditions noted are these: source organism: Vibrio cholerae O139.
For a further experiment, the target named is HLA-B*15:17. The conditions noted are these: source organism: Vibrio cholerae O139.
In a further experiment the target is HLA-A*02:11. The conditions noted are these: source organism: Vibrio cholerae O139.
The target in the next experiment is HLA-A*29:02. The conditions noted are these: source organism: Vibrio cholerae O139.
Where [1] appears, read: source organism: Salmonella enterica subsp. enterica serovar Typhimurium.
Where [2] appears, read: source organism: Escherichia coli O157:H7.
Setting [3] is: source organism: Cryptosporidium parvum Iowa II.
Setting [4] is: source organism: Vibrio cholerae.
Setting [5] is: source organism: Giardia lamblia ATCC 50803.
Setting [6] is: source organism: Yersinia pestis.
The mark [7] stands for this setting: source organism: Vibrio cholerae O139.

pKd: −log10 of the molar value.

Here are results for nine sequences from the Immune Epitope Database (IEDB).

One may read the pKd as the negative decadic logarithm of the Kd, by convention in mol/L. Regarding KLDSGAFTV, in the experiment with HLA-C*03:03 (source organism: Mycobacterium tuberculosis str. Haarlem), the pKd was at most 4.70.

As to VVPLYDTPL, the pKd with HLA-B*15:01 (setting [1]) is 6.00; with HLA-A*26:01 (setting [2]), at most 4.70; in the experiment with HLA-B*27:05 (setting [2]) it was at most 4.70; in the experiment with HLA-A*03:01 (setting [2]), at most 4.70; with HLA-B*07:02 (setting [1]), 5.05; with HLA-B*40:01 (setting [2]), at most 4.70. The negative logarithm of the Kd (pKd) is at most 4.70 with HLA-B*44:02 (setting [2]); at most 4.70 in the experiment with HLA-B*58:01 (setting [2]); at most 4.70 with HLA-A*11:01 (setting [2]); at most 4.70 with HLA-A*24:03 (setting [2]); at most 4.70 with HLA-A*01:01 (setting [2]); 6.50 in the experiment with HLA-B*35:01 (setting [1]). Further, the negative logarithm of the Kd (pKd) with HLA-A*31:01 (setting [2]), with HLA-B*08:01 (setting [2]) and with HLA-A*02:01 (setting [2]) was at most 4.70 each time.

MAVGVVLAL showed a negative-log Kd (pKd) with HLA-C*03:03 (source organism: Mycobacterium tuberculosis variant bovis BCG str. Pasteur 1173P2) of 7.62.

In the case of YLAKLFLDH, the pKd in the experiment with HLA-A*02:19 (setting [3]), with HLA-A*26:01 (setting [3]), in the experiment with HLA-A*68:02 (setting [3]), with HLA-B*18:01 (setting [3]), with HLA-A*02:12 (setting [3]) and in the experiment with HLA-B*39:01 was at most 4.70 throughout. In addition, the pKd in the experiment with HLA-B*57:01 (setting [3]), with HLA-B*51:01 (setting [3]), in the experiment with HLA-B*27:03 (setting [3]), with HLA-A*69:01 (setting [3]) and in the experiment with HLA-B*46:01 (setting [3]) was at most 4.70 each time.

On to RYVGLYLPF, for which the pKd in the experiment with HLA-C*14:02 was at least 9.00; with HLA-A*24:03 (source organism: Mycobacterium tuberculosis) it was 9.70; with HLA-C*15:02 it was at most 4.70.

YFRNSGMTY: the pKd is 7.07 in the experiment with HLA-B*15:01 (setting [4]); at most 4.70 with HLA-A*26:01 (setting [4]); at most 4.70 with HLA-B*27:05 (setting [4]); at most 4.70 with HLA-A*03:01 (setting [4]); at most 4.70 with HLA-B*07:02 (setting [4]); at most 4.70 with HLA-B*40:01 (setting [4]). Also, the pKd with HLA-B*44:02 (setting [4]) is at most 4.70; in the experiment with HLA-B*58:01 (setting [4]), at most 4.70; with HLA-A*11:01 (setting [4]), at most 4.70; in the experiment with HLA-A*01:01 (setting [4]), 5.84; in the experiment with HLA-B*35:01 (setting [4]), 6.96; with HLA-A*31:01 (setting [4]), at most 4.70. Besides, the pKd in the experiment with HLA-B*08:01 (setting [4]), with HLA-A*02:01 (setting [4]) and with HLA-A*69:01 (setting [4]) was at most 4.70 throughout.

Consider PTKCGENLY, for which the pKd with HLA-B*15:01 (setting [5]) was 5.63; in the experiment with HLA-A*26:01 (setting [5]) it was at most 4.70; in the experiment with HLA-B*27:05 (setting [5]), at most 4.70; with HLA-A*03:01 (setting [5]) it was at most 4.70; with HLA-B*07:02 (setting [5]), at most 4.70; with HLA-B*40:01 (setting [5]), at most 4.70. The pKd in the experiment with HLA-B*44:02 (setting [5]) was at most 4.70; in the experiment with HLA-B*58:01 (setting [5]), at most 4.70; with HLA-A*11:01 (setting [5]), at most 4.70; with HLA-A*24:03 (setting [5]), at most 4.70; with HLA-A*01:01 (setting [5]), 5.11; with HLA-B*35:01 (setting [5]), 5.28. Moreover, the pKd was at most 4.70 with HLA-A*31:01 (setting [5]), at most 4.70 with HLA-B*08:01 (setting [5]), at most 4.70 with HLA-A*02:01 (setting [5]) and 4.89 with HLA-A*69:01 (setting [5]).

Regarding TMPELAWAV, the pKd with HLA-B*15:01 (setting [6]), with HLA-A*26:01 (setting [6]), with HLA-B*27:05 (setting [6]), with HLA-A*03:01 (setting [6]), with HLA-B*07:02 (setting [6]) and with HLA-B*40:01 (setting [6]) was at most 4.70 throughout. Moreover, the pKd is at most 4.70 with HLA-B*44:02 (setting [6]); at most 4.70 with HLA-B*58:01 (setting [6]); at most 4.70 with HLA-A*11:01 (setting [6]); at most 4.70 with HLA-A*01:01 (setting [6]); 6.38 in the experiment with HLA-B*35:01 (setting [6]); at most 4.70 in the experiment with HLA-A*31:01 (setting [6]). Also, the pKd with HLA-B*08:01 (setting [6]) is 4.82; with HLA-A*02:01 (setting [6]), 7.80; with HLA-A*69:01 (setting [6]), 8.11.

On to EKDSNHNVL, for which the pKd with HLA-B*15:01 (setting [7]), with HLA-A*02:19 (setting [7]), with HLA-A*26:01 (setting [7]), with HLA-A*68:02 (setting [7]), in the experiment with HLA-B*18:01 (setting [7]) and with HLA-A*02:16 was at most 4.70 in each case. The pKd with HLA-A*02:03, with HLA-A*23:01, with HLA-A*02:12 (setting [7]), with HLA-A*03:01 (setting [7]), with HLA-A*24:03 (setting [7]) and with HLA-B*57:01 (setting [7]) was at most 4.70 throughout. For the same sequence, the pKd with HLA-B*15:17, with HLA-B*51:01 (setting [7]), with HLA-A*02:11, in the experiment with HLA-A*02:01 (setting [7]), in the experiment with HLA-A*29:02 and in the experiment with HLA-B*27:03 (setting [7]) was at most 4.70 each time. The negative logarithm of the Kd (pKd) with HLA-A*69:01 (setting [7]) and with HLA-B*46:01 (setting [7]) was at most 4.70 in each case.
